Assay results as given in paper PMC10173203 (Science translational medicine, 2021).

Target: HA of A/Michigan/45/2015 H1N1 virus (Influenza A virus A/Michigan/45/2015 …, UniProt A0A1J0CXU0, strain)
Test: ELISA

B1: 047–09 4B06 mAb (human IgG1) (antibody, V domains shown)
VH: EVQLLESGGGLVQPGGSLRLSCAASGFIFGHFAMTWVRQAPGKGLEWLSAISGGGLNTYYAESVKGRFTMSRDNSKNTLYLQMGSLRAEDAAVYYCARFDSSGYNYVRGMVVWGQGTAV
VL: DIQMTQSPSSLSVSIGDRITITCQASQDIKNYLGWYQHKPGKAPKLLIYHVSNLEAGVPSRFSGSGSGTDFTFTISSLQPEDIGTYYCHQCYNLPYTFGQGTKVEIK
binding result: binds
